In the Human Domainome abundance scans (Beltran et al. 2025) one finds abundance fitness data, which are given here for 43 variants.

± gives the uncertainty stated by the source.

The chains are these.
B1: Formin-binding protein 4, residues 200 to 261; numbered along this chain, Q8N3X1 (parent)
chain: SGWQYDTQCSLAGVGIEMGDWQEVWDENTGCYYYWNTQTNEVTWELPQYLATQVQGLQHYQP

The variants in this data set derive from B1. The data set is described as follows: abundance fitness (aPCA) (normalised: wild type 0, dead -1); higher = more abundant; growth selection in yeast, the domain comes from the species named. Particulars: Homo sapiens.
For SGWQYDTQCSLAGVGIEMGDWQEVWDENTGCYYYWNTDTNEVTWELPQYLATQVQGLQHYQP [Q38D], the abundance fitness was found to be 0.247 ± 0.16.

SGWQYDTQCSLAGVGIEMGDWQEVWDENTGCYYYWNTVTNEVTWELPQYLATQVQGLQHYQP [Q38V]: the abundance fitness is -0.126 ± 0.074.

Turning to SGWQYDTQCSLAGVGIEMGDWQEVWDENTGCYYYWNTKTNEVTWELPQYLATQVQGLQHYQP [Q38K], the abundance fitness came to 0.138 ± 0.11.

Regarding SGWQYDTQCSLAGVGIEMGDWQEVWDENTGCYYYWNTWTNEVTWELPQYLATQVQGLQHYQP [Q38W], the abundance fitness was -0.216 ± 0.088.

Regarding SGWQYDTQCSLAGVGIEMGDWQEVWDENTGCYYYWNTITNEVTWELPQYLATQVQGLQHYQP [Q38I], the abundance fitness was -0.086 ± 0.14.

For the variant SGWQYDTQCSLAGVGIEMGDWQEVWDENTGCYYYWNTRTNEVTWELPQYLATQVQGLQHYQP [Q38R], the abundance fitness was 0.042 ± 0.064.

Consider SGWQYDTQCSLAGVGIEMGDWQEVWDENTGCYYYWNTMTNEVTWELPQYLATQVQGLQHYQP [Q38M], for which the abundance fitness was -0.11 ± 0.092.

For the variant SGWQYDTQCSLAGVGIEMGDWQEVWDENTGCYYYWNTFTNEVTWELPQYLATQVQGLQHYQP [Q38F], the abundance fitness was -0.346 ± 0.17.

SGWQYDTQCSLAGVGIEMGDWQEVWDENTGCYYYWNTNTNEVTWELPQYLATQVQGLQHYQP [Q38N]: the abundance fitness is -0.266 ± 0.25.

With SGWQYDTQCSLAGVGIEMGDWQEVWDENTGCYYYWNTTTNEVTWELPQYLATQVQGLQHYQP [Q38T], the abundance fitness was 0.254 ± 0.082.

Turning to SGWQYDTQCSLAGVGIEMGDWQEVWDENTGCYYYWNTPTNEVTWELPQYLATQVQGLQHYQP [Q38P], the abundance fitness was -0.541 ± 0.14.

In the case of SGWQYDTQCSLAGVGIEMGDWQEVWDENTGCYYYWNTHTNEVTWELPQYLATQVQGLQHYQP [Q38H], the abundance fitness was -0.022 ± 0.25.

With SGWQYDTQCSLAGVGIEMGDWQEVWDENTGCYYYWNTLTNEVTWELPQYLATQVQGLQHYQP [Q38L], the abundance fitness is -0.133 ± 0.063.

Consider SGWQYDTQCSLAGVGIEMGDWQEVWDENTGCYYYWNTETNEVTWELPQYLATQVQGLQHYQP [Q38E], for which the abundance fitness is -0.081 ± 0.08.

In the case of SGWQYDTQCSLAGVGIEMGDWQEVWDENTGCYYYWNTSTNEVTWELPQYLATQVQGLQHYQP [Q38S], the abundance fitness is -0.019 ± 0.069.

Take SGWQYDTQCSLAGVGIEMGDWQEVWDENTGCYYYWNTGTNEVTWELPQYLATQVQGLQHYQP [Q38G]: the abundance fitness is -0.077 ± 0.064.

In the case of SGWQYDTQCSLAGVGIEMGDWQEVWDENTGCYYYWNTYTNEVTWELPQYLATQVQGLQHYQP [Q38Y], the abundance fitness worked out at 0.128 ± 0.26.

For SGWQYDTQCSLAGVGIEMGDWQEVWDENTGCYYYWNTQHNEVTWELPQYLATQVQGLQHYQP [T39H], the abundance fitness was -0.34 ± 0.16.

Turning to SGWQYDTQCSLAGVGIEMGDWQEVWDENTGCYYYWNTQGNEVTWELPQYLATQVQGLQHYQP [T39G], the abundance fitness is -0.362 ± 0.097.

For SGWQYDTQCSLAGVGIEMGDWQEVWDENTGCYYYWNTQSNEVTWELPQYLATQVQGLQHYQP [T39S], the abundance fitness stood at 0.017 ± 0.058.

Regarding SGWQYDTQCSLAGVGIEMGDWQEVWDENTGCYYYWNTQQNEVTWELPQYLATQVQGLQHYQP [T39Q], the abundance fitness is -0.226 ± 0.12.

With SGWQYDTQCSLAGVGIEMGDWQEVWDENTGCYYYWNTQFNEVTWELPQYLATQVQGLQHYQP [T39F], the abundance fitness is -0.577 ± 0.13.

Regarding SGWQYDTQCSLAGVGIEMGDWQEVWDENTGCYYYWNTQLNEVTWELPQYLATQVQGLQHYQP [T39L], the abundance fitness was -0.461 ± 0.066.

SGWQYDTQCSLAGVGIEMGDWQEVWDENTGCYYYWNTQCNEVTWELPQYLATQVQGLQHYQP [T39C]: the abundance fitness is -0.307 ± 0.094.

As to SGWQYDTQCSLAGVGIEMGDWQEVWDENTGCYYYWNTQANEVTWELPQYLATQVQGLQHYQP [T39A], the abundance fitness is -0.411 ± 0.098.

For SGWQYDTQCSLAGVGIEMGDWQEVWDENTGCYYYWNTQKNEVTWELPQYLATQVQGLQHYQP [T39K], the abundance fitness is -0.123 ± 0.089.

For the variant SGWQYDTQCSLAGVGIEMGDWQEVWDENTGCYYYWNTQNNEVTWELPQYLATQVQGLQHYQP [T39N], the abundance fitness is -0.093 ± 0.11.

For SGWQYDTQCSLAGVGIEMGDWQEVWDENTGCYYYWNTQDNEVTWELPQYLATQVQGLQHYQP [T39D], the abundance fitness was -0.151 ± 0.18.

SGWQYDTQCSLAGVGIEMGDWQEVWDENTGCYYYWNTQYNEVTWELPQYLATQVQGLQHYQP [T39Y]: the abundance fitness was -0.579 ± 0.15.

Take SGWQYDTQCSLAGVGIEMGDWQEVWDENTGCYYYWNTQENEVTWELPQYLATQVQGLQHYQP [T39E]: the abundance fitness is -0.37 ± 0.13.

In the case of SGWQYDTQCSLAGVGIEMGDWQEVWDENTGCYYYWNTQPNEVTWELPQYLATQVQGLQHYQP [T39P], the abundance fitness is -0.873 ± 0.12.

With SGWQYDTQCSLAGVGIEMGDWQEVWDENTGCYYYWNTQWNEVTWELPQYLATQVQGLQHYQP [T39W], the abundance fitness was -0.568 ± 0.094.

As for SGWQYDTQCSLAGVGIEMGDWQEVWDENTGCYYYWNTQMNEVTWELPQYLATQVQGLQHYQP [T39M], the abundance fitness was -0.386 ± 0.1.

For the variant SGWQYDTQCSLAGVGIEMGDWQEVWDENTGCYYYWNTQINEVTWELPQYLATQVQGLQHYQP [T39I], the abundance fitness was -0.354 ± 0.1.

Turning to SGWQYDTQCSLAGVGIEMGDWQEVWDENTGCYYYWNTQRNEVTWELPQYLATQVQGLQHYQP [T39R], the abundance fitness is -0.306 ± 0.06.

Regarding SGWQYDTQCSLAGVGIEMGDWQEVWDENTGCYYYWNTQVNEVTWELPQYLATQVQGLQHYQP [T39V], the abundance fitness was -0.877 ± 0.14.

In the case of SGWQYDTQCSLAGVGIEMGDWQEVWDENTGCYYYWNTQTNECTWELPQYLATQVQGLQHYQP [V42C], the abundance fitness is -0.242 ± 0.13.

As for SGWQYDTQCSLAGVGIEMGDWQEVWDENTGCYYYWNTQTNEMTWELPQYLATQVQGLQHYQP [V42M], the abundance fitness was found to be 0.12 ± 0.07.

Turning to SGWQYDTQCSLAGVGIEMGDWQEVWDENTGCYYYWNTQTNEQTWELPQYLATQVQGLQHYQP [V42Q], the abundance fitness amounted to 0.308 ± 0.094.

For the variant SGWQYDTQCSLAGVGIEMGDWQEVWDENTGCYYYWNTQTNEETWELPQYLATQVQGLQHYQP [V42E], the abundance fitness turned out to be 0.063 ± 0.081.

Regarding SGWQYDTQCSLAGVGIEMGDWQEVWDENTGCYYYWNTQTNELTWELPQYLATQVQGLQHYQP [V42L], the abundance fitness was -0.202 ± 0.055.

SGWQYDTQCSLAGVGIEMGDWQEVWDENTGCYYYWNTQTNEKTWELPQYLATQVQGLQHYQP [V42K]: the abundance fitness was 0.084 ± 0.11.

Consider SGWQYDTQCSLAGVGIEMGDWQEVWDENTGCYYYWNTQTNEFTWELPQYLATQVQGLQHYQP [V42F], for which the abundance fitness was -0.148 ± 0.096.
